Results published in patent publication CN115141270A (SHENZHEN KANGMAI BIOTECHNOLOGY CO LTD, dated 2022).

Tests used:
[1] = molecular target: SARS-CoV-2 英国流行株 (MW255832) live virus, spike glycoprotein (SARS-CoV-2); assay: cell-based or functional assay
[2] = molecular target: SARS-CoV-2 东南亚株 (MW341443) live virus, spike glycoprotein (SARS-CoV-2); assay: cell-based or functional assay

B1: 抗体nCoV617 (anti-coronavirus spike glycoprotein human monoclonal antibody) (antibody, V domains shown)
VH: QVQLVESGGGVVQPGRSLRLSCAASGFTFSSYAMHWVRQAPGKGLEWVALISYDGSNKYYADSVKGRFTISRDNSKNTLYLQMNSLRAEDTAVYYCARGLGLRFLEWPISSYWGQGTLVTVSS
VL: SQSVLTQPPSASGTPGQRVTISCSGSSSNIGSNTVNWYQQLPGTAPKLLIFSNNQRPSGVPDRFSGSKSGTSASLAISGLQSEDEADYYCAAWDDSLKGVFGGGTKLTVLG
notes: also called 抗S蛋白抗体; 抗冠状病毒刺突糖蛋白单克隆抗体
IC50 (neutralisation of live virus on Vero E6 cells, cytopathic effect) [1]: 1.1 µg/mL | IC50 (neutralisation of live virus on Vero E6 cells, cytopathic effect) [2]: 0.87 µg/mL
